We go through 1 substance from PMC8686473.

Experiment [1] concerns the target Etanercept (UniProt P20333). The experiment in a line: SEC-MALS; untreated formulation diluted 25 times in water to 2 mg/ml; BioResolve SEC mAb column, 50 mM phosphate buffer pH 7, 200 mM KCl, 30°C, 0.5 ml/min. In general terms: Size exclusion chromatography separates by hydrodynamic size, large species first.
Experiment [2] deals with Etanercept (UniProt P20333). The experiment in a line: SEC-MALS; formulation after forced degradation (stirring at 600 rpm, 60°C, 2 h); BioResolve SEC mAb column, 50 mM phosphate buffer pH 7, 200 mM KCl, 30°C, 0.5 ml/min.

In the case of “Etanercept (from UniProt P20333 23-257) (Fc fusion)”, the figures for the stoichiometry N in experiment [1] and in experiment [2] were 3 and 23, respectively.
